Assays:
[1] = system: Human primary foreskin fibroblasts (BJ fibroblasts); assay: Innate immune response transcripts in BJ fibroblasts, single transfection (qPCR); assay type: cell-based; settings: 250 ng, 18 hours
Description: The cells were harvested after 18 hours, the total RNA was isolated and DNASE® treated using the RNeasy micro kit (catalog #74004) following the manufacturer's protocol. 100 ng of total RNA was used for cDNA synthesis using High Capacity cDNA Reverse Transcription kit (catalog #4368814) following the manufacturer's protocol. The cDNA was then analyzed for the expression of innate immune response genes by quantitative real time PCR using SybrGreen in a Biorad CFX 384 instrument following manufacturer's protocol. […] In the table, the panel of standard metrics includes: RIG-I is retinoic acid inducible gene 1, IL6 is interleukin-6, OAS-1 is oligoadenylate synthetase 1, IFNb is interferon-beta, AIM2 is absent in melanoma-2, IFIT-1 is interferon-induced protein with tetratricopeptide repeats 1, PKR is protein kinase R, TNFa is tumor necrosis factor alpha and IFNa is interferon alpha.

rat myoblast (L6 line) = assay: Example 44 signal sequence exchange study, secreted G-CSF ELISA; assay type: cell-based; settings: RM, 250 ng modified mRNA, supernatant after 24 hrs
From the text: (§1) These variants included the G-CSF constructs encoding either the wild-type N terminal secretory signal peptide sequence ([…]; SEQ ID NO: 21), no secretory signal peptide sequence, or secretory signal peptide sequences taken from other mRNAs. These included sequences where the wild type GCSF signal peptide sequence was replaced with the signal peptide sequence of either: human α-1-anti trypsin (AAT) ([…]; SEQ ID NO: 22), human Factor IX (FIX) ([…]; SEQ ID NO: 23), human Prolactin (Prolac) ([…]; SEQ ID NO: 24), or human Albumin (Alb) ([…]; SEQ ID NO: 25).
(§2) 250 ng of modified mRNA encoding each G-CSF variant was transfected into HEK293A (293A in the table), mouse myoblast (MM in the table) (C2C12, CRL-1772, ATCC) and rat myoblast (RM in the table) (L6 line, CRL-1458, ATCC) cell lines in a 24 well plate using 1 ul of Lipofectamine 2000 (Life Technologies), each well containing 300,000 cells. […] The data shown in Table 68 reveal that cells transfected with G-CSF mmRNA encoding the Albumin signal peptide secrete at least 12 fold more G-CSF protein than its wild type counterpart.

mouse myoblast (C2C12) = assay: as above; assay type: cell-based; settings: MM, 250 ng modified mRNA, supernatant after 24 hrs
From the text: as §1, §2

HEK293A = assay: as above; assay type: cell-based, human; settings: 293A, 250 ng modified mRNA, supernatant after 24 hrs
From the text: as §1, §2

HEK293 cells = assay: In vitro expression of VEGF modified mRNA (ELISA); assay type: cell-based
[2] = system: Human primary foreskin fibroblasts (BJ fibroblasts); assay: Innate immune response in BJ fibroblasts, repeat transfection: cytokine response; assay type: cell-based
mice = assay: In vivo cytokine expression study (serum IFN-alpha); settings: mouse serum; I.M. 200 ug mRNA; after 8 hours
Description: After 8 hours serum was collected from the mice and analyzed for interferon-alpha (IFN-alpha) expression.

[3] = system: female Sprague Dawley rats; assay: In vivo delivery of modified RNA: G-CSF protein in rat serum (I.M.); settings: I.M. 400 ug in 100 ul, 5% sucrose, 8 hours after injection
Description: Protein production of modified mRNA was evaluated by delivering modified G-CSF mRNA or modified Factor IX mRNA to female Sprague Dawley rats (n=6). […] Blood was collected 8 hours after injection and the G-CSF protein level in serum was measured by ELISA.

Female BALB/C mice = assay: In vivo detection of innate immune response: human G-CSF and mouse IFN-alpha in serum after I.M. injection; settings: for PC Ratio: Protein:Cytokine ratio, G-CSF / IFN-alpha in mouse serum; for G-CSF protein: human G-CSF in mouse serum, 200 ug/mouse mRNA (R848 75 ug) in 5% sucrose; for G-CSF protein / IFN-alpha expression: I.M., 8 hours after dosing; for IFN-alpha expression: mouse IFN-alpha in serum, 200 ug/mouse mRNA (R848 75 ug)
Description: Blood is collected at 8 hours after dosing and using ELISA the protein levels of G-CSF and interferon-alpha (IFN-alpha) is determined by ELISA and are shown in Table 81.

[4] = Stability of modified RNA on storage (gel electrophoresis); assay type: physicochemical; settings: gel electrophoresis
Description: Stability experiments were conducted to obtain a better understanding of storage conditions to retain the integrity of modified RNA. […] After the mRNA had been stored for 0 hours, 2 hours, 6 hours, 24 hours, 48 hours, 5 days and 14 days, the mRNA was analyzed by gel electrophoresis using a Bio-Rad EXPERION′ system. The modified, unmodified and lipoplexed G-CSF mRNA was also stored in RNASTABLE® (Biomatrica, Inc. San Diego, Calif.) at 40° C. or water at −80° C. or 40° C. for 35 days before being analyzed by gel electrophoresis.
mRNA samples stored at 4° C., 25° C. and 37° C. were stored in 1× TE buffer or the formulation buffer (150 mM sodium chloride, 2 mM calcium chloride, 2 mM phosphate, 0.5 mM EDTA at a pH of 6.5). The mRNA stored at 4° C. was stable to at least 60 days in both the TE and formulation buffer. At 25° C. the mRNA in formulation buffer was stable out to 14 days and the TE buffer was stable out to at least 6 days. Storage of mRNA in the formulation buffer at 37° C. was stable to 6 days compared to the TE buffer which was stable only until 4 days.

[5] = 250 ng transfected daily for 5 days, 6 hours

Natural Luciferase: natural luciferase mRNA SEQ ID NO: 16, Cap1
AIM2 transcript level [1]: 0.251 fold-induction relative to HPRT | IFIT-1 transcript level [1]: 151.218 fold-induction relative to HPRT | IFNa transcript level [1]: 0.067 fold-induction relative to HPRT | IFNb transcript level [1]: 11.404 fold-induction relative to HPRT | IL6 transcript level [1]: 20.6 fold-induction relative to HPRT | OAS-1 transcript level [1]: 20.778 fold-induction relative to HPRT | PKR transcript level [1]: 16.001 fold-induction relative to HPRT | RIG-I transcript level [1]: 71.5 fold-induction relative to HPRT | TNFa transcript level [1]: 0.526 fold-induction relative to HPRT

Albumin
secreted G-CSF protein (rat myoblast (L6 line)): 173300 pg/mL | secreted G-CSF protein (mouse myoblast (C2C12)): 81050 pg/mL | secreted G-CSF protein (HEK293A): 122050 pg/mL

Prolactin
secreted G-CSF protein (rat myoblast (L6 line)): 9800 pg/mL | secreted G-CSF protein (mouse myoblast (C2C12)): 1525 pg/mL | secreted G-CSF protein (HEK293A): 7875 pg/mL

α-1-anti trypsin
secreted G-CSF protein (rat myoblast (L6 line)): 8475 pg/mL | secreted G-CSF protein (mouse myoblast (C2C12)): 5000 pg/mL | secreted G-CSF protein (HEK293A): 9950 pg/mL

B1: VEGF-A: modified mRNA VEGF-A SEQ ID NO: 19, Cap1, fully modified with 5-methylcytosine and pseudouridine, Lipofectamine2000 complexed (nucleic acid, listed as Homo sapiens)
sense: GGGAAAUAAGAGAGAAAAGAAGAGUAAGAAGAAAUAUAAGAGCCACCAUGAACUUUCUCUUGUCAUGGGUGCACUGGAGCCUUGCGCUGCUGCUGUAUCUUCAUCACGCUAAGUGGAGCCAGGCCGCACCCAUGGCGGAGGGUGGCGGACAGAAUCACCACGAAGUAGUCAAAUUCAUGGACGUGUACCAGAGGUCGUAUUGCCAUCCGAUUGAAACUCUUGUGGAUAUCUUUCAAGAAUACCCCGAUGAAAUCGAGUACAUUUUCAAACCGUCGUGUGUCCCUCUCAUGAGGUGCGGGGGAUGCUGCAAUGAUGAAGGGUUGGAGUGUGUCCCCACGGAGGAGUCGAAUAUCACAAUGCAAAUCAUGCGCAUCAAACCACAUCAGGGUCAGCAUAUUGGAGAGAUGUCCUUUCUCCAGCACAACAAAUGUGAGUGUAGACCGAAGAAGGACCGAGCCCGACAGGAAAACCCAUGCGGACCGUGCUCCGAGCGGCGCAAACACUUGUUCGUACAAGACCCCCAGACAUGCAAGUGCUCAUGUAAGAAUACCGAUUCGCGGUGUAAGGCGAGACAGCUGGAAUUGAACGAGCGCACGUGUAGGUGCGACAAGCCUAGACGGUGAGCUGCCUUCUGCGGGGCUUGCCUUCUGGCCAUGCCCUUCUUCUCUCCCUUGCACCUGUACCUCUUGGUCUUUGAAUAAAGCCUGAGUAGGAAG
modifications: Cap1, polyA, 5mC/pseudoU, Lipofectamine2000 complexed
Protein (HEK293 cells; amount transfected 2 pg): 0 pg/mL | Protein (HEK293 cells; amount transfected 10 pg): 0 pg/mL | Protein (HEK293 cells; amount transfected 39 pg): 0 pg/mL | Protein (HEK293 cells; amount transfected 156 pg): 189.6 pg/mL | Protein (HEK293 cells; amount transfected 625 pg): 2321.23 pg/mL | Protein (HEK293 cells; amount transfected 2.5 ng): 10038 pg/mL | Protein (HEK293 cells; amount transfected 10 ng): 10495 pg/mL | Protein (HEK293 cells; amount transfected 610 fg): 0 pg/mL

B2: G-CSF Gen 1: G-CSF mRNA SEQ ID NO: 6, Cap1, fully modified with 5-methylcytosine and pseudouridine (nucleic acid, listed as Homo sapiens)
chain: GGGAAAUAAGAGAGAAAAGAAGAGUAAGAAGAAAUAUAAGAGCCACCAUGGCCGGUCCCGCGACCCAAAGCCCCAUGAAACUUAUGGCCCUGCAGUUGCUGCUUUGGCACUCGGCCCUCUGGACAGUCCAAGAAGCGACUCCUCUCGGACCUGCCUCAUCGUUGCCGCAGUCAUUCCUUUUGAAGUGUCUGGAGCAGGUGCGAAAGAUUCAGGGCGAUGGAGCCGCACUCCAAGAGAAGCUCUGCGCGACAUACAAACUUUGCCAUCCCGAGGAGCUCGUACUGCUCGGGCACAGCUUGGGGAUUCCCUGGGCUCCUCUCUCGUCCUGUCCGUCGCAGGCUUUGCAGUUGGCAGGGUGCCUUUCCCAGCUCCACUCCGGUUUGUUCUUGUAUCAGGGACUGCUGCAAGCCCUUGAGGGAAUCUCGCCAGAAUUGGGCCCGACGCUGGACACGUUGCAGCUCGACGUGGCGGAUUUCGCAACAACCAUCUGGCAGCAGAUGGAGGAACUGGGGAUGGCACCCGCGCUGCAGCCCACGCAGGGGGCAAUGCCGGCCUUUGCGUCCGCGUUUCAGCGCAGGGCGGGUGGAGUCCUCGUAGCGAGCCACCUUCAAUCAUUUUUGGAAGUCUCGUACCGGGUGCUGAGACAUCUUGCGCAGCCGUGAAGCGCUGCCUUCUGCGGGGCUUGCCUUCUGGCCAUGCCCUUCUUCUCUCCCUUGCACCUGUACCUCUUGGUCUUUGAAUAAAGCCUGAGUAGGAAG
modifications: Cap1, 5mC/pseudouridine modified
IFN-beta [2, 5]: 0 pg/mL | IL-6 ([2]; daily transfection, 6 hours): 3396 pg/mL | IFN-beta ([2]; daily transfection, Day 1): 38 pg/mL | IL-6 ([2]; daily transfection, Day 1): 3870 pg/mL | IFN-beta ([2]; daily transfection, Day 2): 1125 pg/mL | IL-6 ([2]; daily transfection, Day 2): 16341 pg/mL | IFN-beta ([2]; daily transfection, Day 3): 100 pg/mL | IL-6 ([2]; daily transfection, Day 3): 25983 pg/mL | IFN-beta ([2]; daily transfection, Day 4): 75 pg/mL | IL-6 ([2]; daily transfection, Day 4): 18922 pg/mL | IFN-beta ([2]; daily transfection, Day 5): 213 pg/mL | IL-6 ([2]; daily transfection, Day 5): 15928 pg/mL | IFN-alpha (mice): 8.867 pg/mL | G-CSF protein [3]: 19.37 pg/mL | PC Ratio (Female BALB/C mice): 40 | G-CSF protein (Female BALB/C mice): 356.5 pg/mL | IFN-alpha expression (Female BALB/C mice; listed as 5mc/pU modified G-CSF mRNA): low but detectable cytokine response | IFN-alpha expression (Female BALB/C mice; listed as GCSF mRNA 5mc/pU): 8.87 pg/mL

B3: G-CSF unmodified: unmodified G-CSF mRNA SEQ ID NO: 6, Cap1 (nucleic acid, listed as Homo sapiens)
chain: B2 chain
modifications: Cap1
IFN-beta [2, 5]: 0 pg/mL | IL-6 ([2]; daily transfection, 6 hours): 3596 pg/mL | IFN-beta ([2]; daily transfection, Day 1): 1363 pg/mL | IL-6 ([2]; daily transfection, Day 1): 15207 pg/mL | IFN-beta ([2]; daily transfection, Day 2): 238 pg/mL | IL-6 ([2]; daily transfection, Day 2): 12415 pg/mL | IFN-beta ([2]; daily transfection, Day 3): 225 pg/mL | IL-6 ([2]; daily transfection, Day 3): 5017 pg/mL | IFN-beta ([2]; daily transfection, Day 4): 363 pg/mL | IL-6 ([2]; daily transfection, Day 4): 4267 pg/mL | IFN-beta ([2]; daily transfection, Day 5): 225 pg/mL | IL-6 ([2]; daily transfection, Day 5): 3094 pg/mL | stable out to (storage time) ([4]; stored at 25 C): 48 h | stable out to (storage time) ([4]; stored at 37 C): 6 h | stable out to (storage time) ([4]; stored at 50 C): 2 h | IFN-alpha (mice): 67.012 pg/mL | PC Ratio (Female BALB/C mice): 9 | G-CSF protein (Female BALB/C mice): 605.6 pg/mL | IFN-alpha expression (Female BALB/C mice): 67.01 pg/mL
